Test results taken from patent US20150132307A1 (Hoffmann-La Roche, published 2015).

T1: Human recombinant soluble TWEAK (Example 6) (human, UniProt O43508 99-249, limits assumed)
T1 sequence: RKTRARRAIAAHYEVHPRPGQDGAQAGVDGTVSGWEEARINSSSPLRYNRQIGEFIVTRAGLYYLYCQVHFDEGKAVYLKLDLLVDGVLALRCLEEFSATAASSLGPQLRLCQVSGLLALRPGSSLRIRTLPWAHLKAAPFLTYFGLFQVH

T2: Mouse soluble TWEAK (untagged, Example 5) (mouse, UniProt O54907 105-249, limits assumed)
T2 construct: also called Murine TWEAK
T2 sequence: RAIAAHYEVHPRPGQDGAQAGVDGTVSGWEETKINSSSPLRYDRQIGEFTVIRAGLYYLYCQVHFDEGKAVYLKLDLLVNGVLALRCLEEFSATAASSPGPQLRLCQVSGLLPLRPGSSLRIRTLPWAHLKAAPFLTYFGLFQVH

T3: human Flag-tagged soluble TWEAK (amino acids 106-249) (human, UniProt O43508 106-249)
T3 construct: The sentence gives amino acids 106-249 without naming the entry; also called Human TWEAK; not shown: Flag tag
T3 sequence: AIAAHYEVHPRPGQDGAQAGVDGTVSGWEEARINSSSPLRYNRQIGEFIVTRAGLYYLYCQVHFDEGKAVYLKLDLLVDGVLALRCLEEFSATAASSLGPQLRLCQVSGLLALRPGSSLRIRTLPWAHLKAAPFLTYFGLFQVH

T4: Biotinylated human soluble TWEAK (amino acids 99-249 of SEQ ID NO: 68) (human, UniProt O43508 99-249, biotinylated)
T4 construct: also called Human TWEAK
T4 sequence: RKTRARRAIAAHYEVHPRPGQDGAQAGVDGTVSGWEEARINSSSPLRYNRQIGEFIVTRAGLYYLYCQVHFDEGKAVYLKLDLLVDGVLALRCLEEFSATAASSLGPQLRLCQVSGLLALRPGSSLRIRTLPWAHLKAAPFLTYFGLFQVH

T5: Recombinant human TWEAK (R&D Systems; Cat. #1090-TW/CF) (human, UniProt O43508 97-249, limits assumed)
T5 sequence: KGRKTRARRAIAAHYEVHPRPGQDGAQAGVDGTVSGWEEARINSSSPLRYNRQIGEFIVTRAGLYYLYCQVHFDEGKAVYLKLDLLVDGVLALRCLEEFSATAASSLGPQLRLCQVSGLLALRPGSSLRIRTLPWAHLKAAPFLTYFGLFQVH

T6: IL-17 F/F (human, UniProt Q96PD4 31-163)
T6 construct: read as the homodimer of IL17F
T6 sequence: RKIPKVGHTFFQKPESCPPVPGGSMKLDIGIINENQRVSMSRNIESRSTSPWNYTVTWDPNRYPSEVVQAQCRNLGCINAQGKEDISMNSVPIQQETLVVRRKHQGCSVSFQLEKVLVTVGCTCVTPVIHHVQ


Experiments:
[1] = target: T1, Human recombinant soluble TWEAK …; experiment: cell-based or functional assay
[2] = target: T2, Mouse soluble TWEAK (untagged, Example …); experiment: receptor interaction ELISA: mouse soluble TWEAK 4 ng/ml preincubated with antibody, then on coated mouse Fn14:Fc (competitor m22)
Protocol: Briefly, Maxisorp plates were coated with mouse Fn14:Fc (extracellular domain of mouse Fn14 (amino acids 1-75 of SEQ ID NO: 98) fused to Fc portion of human IgG1) as described above for human Fn14:Fc, followed by blocking and washing. […] After 1 h of incubation at room temperature and four washes, biotinylated anti-mouse TWEAK antibody at 125 ng/ml in blocking buffer was added for 1 h at room temperature, followed by another four wash steps. The TWEAK antibody was detected by incubation with streptavidin-HRP, diluted 1:5000 in blocking buffer, for 30 minutes at room temperature. Signal was developed and absorbance measured as described above.

[3] = target: T3, human Flag-tagged soluble TWEAK (amino …); experiment: receptor interaction ELISA: Flag-TWEAK 2.5 ng/ml preincubated with antibody, then on coated human Fn14:Fc (competitor m21)
Protocol: 96-well Maxisorp® plates (Nunc) were coated with 100 μl 1 μg/ml human Fn14:Fc (extracellular domain of human Fn14 (amino acids 1-75 of SEQ ID NO: 98) fused to Fc portion of human IgG1) in PBS per well for 1.5 h at room temperature and blocked with a solution of 5% FBS in PBS for 30 minutes at room temperature under shaking. […] After washing the Fn14-coated plate once with wash buffer (0.1% Tween® 20 in PBS), 100 μl of the TWEAK-antibody solution were transferred to each well and the plate was incubated for 1 h at room temperature, followed by four washes with wash buffer. Wells were filled with 100 μl of anti-FLAG-HRP detection antibody, diluted 1:5000 in blocking buffer, and incubated for 1 h at room temperature. After four more wash steps, the signal was developed by addition of 100 μl 3,3,5,5-Tetramethylbenzidine (TMB) solution for approximately ten minutes. The reaction was stopped by adding 100 μl of 1 N HCl, and absorbance measured at 450 nm (reference wavelength 620 nm).

[4] = target: T4, Biotinylated human soluble TWEAK (amino …); experiment: SPR (Biacore 2000), biotinylated soluble TWEAK on streptavidin chip, antibody 100 nM as analyte, 25 C
Protocol: A Biacore 2000 instrument was used with a Biacore streptavidin coated sensor mounted into the system. The system buffer HBS-ET (10 mM HEPES pH 7.4, 150 mM NaCl, 1 mM EDTA, 0.05% Tween® 20) was used at a flow rate of 100 μl/min. The sample buffer was the system buffer. Biotinylated human soluble TWEAK (amino acids 99-249 of SEQ ID NO: 68) and biotinylated murine soluble TWEAK (amino acids 81-225 of SEQ ID NO: 69) was immobilized on different flow cells on the SA sensor at 150 RU each. The flow cell FC1 was used as a blank reference cell. Each antibody was injected into the system as an analyte at 100 nM at 100 μl/min for 2 min association time. The dissociation of the immunecomplexes were monitored for 5 min. The sensor surface was washed with HBS-ET for 10 seconds and regenerated using 2×2 minutes injections with 10 mM glycine pH 2.25. This procedure was done at 25° C. The kinetically rate limiting step of the complex dissociation phase in the interval [240 s-300 s] was taken to calculate the dissociation rate kd [1/s] (Biacore Evaluation Software 4.0). According to the equation t1/2 diss=ln(2)/(60×kd), the half-life of the immunocomplexes in minutes was calculated.

[5] = target: T7, IL-17 A/F (human, UniProt Q16552 24-155; Q96PD4 31-163); experiment: SPR (BIAcore T100), antibody captured by anti-human F(ab')2, IL17 as analyte, 25 C, 1:1 model
T7 construct: read as the heterodimer of IL17A and IL17F
Protocol: (§1) Around 12000 resonance units (RU) of the capturing system (10 μg/ml goat anti human F(ab′)2; Order Code: 28958325; GE Healthcare Bio-Sciences AB, Schweden) were coupled on a CMS chip at pH 5.0 by using an amine coupling kit supplied by the GE Healthcare. The sample and system buffer was PBS-T (10 mM phosphate buffered saline including 0.05% Tween20) pH 7.4. The bispecific antibody was captured by injecting a 50 nM solution for 1 min at a flow of 10 μl/min. Association was measured by injection human IL17 in various concentrations in solution for 3 min at a flow of 30 μl/min starting with 50 nM in 1:1 dilutions. The dissociation phase was monitored for up to 5 min and triggered by switching from the sample solution to running buffer. The surface was regenerated by two times 60 sec. washing with a glycin pH 2.1 solution at a flow rate of 30 μl/min. Bulk refractive index differences were corrected by subtracting the response obtained from a goat anti human F(ab′)2 surface. Blank injections are also subtracted (=double referencing). For calculation of apparent KD and other kinetic parameters the Langmuir 1:1 model was used.

[6] = target: T5, Recombinant human TWEAK (R&D Systems; …); experiment: cell-based or functional assay
[7] = target: T6, IL-17 F/F; experiment: SPR (BIAcore T100), antibody captured by anti-human F(ab')2, IL17 as analyte, 25 C
Protocol: as §1

[8] = target: human IL17A/A (human, UniProt Q16552 24-155, limits assumed); experiment: SPR (BIAcore T100), antibody captured by anti-human F(ab')2, IL17 as analyte, 25 C, apparent KD, 1:1 model
Protocol: as §1

human IL17A/A, sequence (Q16552 24-155 limits assumed): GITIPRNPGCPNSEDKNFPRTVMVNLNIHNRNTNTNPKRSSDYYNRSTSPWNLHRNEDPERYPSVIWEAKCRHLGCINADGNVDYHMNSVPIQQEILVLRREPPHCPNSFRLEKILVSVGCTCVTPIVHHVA
T7 sequence (Q16552 24-155 limits assumed, one chain of several): as the sequence (Q16552 24-155 limits assumed) above

| Inhibition of IL-8 Secretion IC50 [ng/ml] (A375 cells) [1] [ng/mL] | IC50 [2] [ng/mL] | IC50 [3] [ng/mL] | t/2 diss [min] 25° C. [4] [min] | Kd [5] [nM] | IC50 (nM) per valency, Tweak induced HFLS proliferation (CellTiter Glo) [6] [nM] | Kd [8] [nM] | Binder | binding result [7] |
| --- | --- | --- | --- | --- | --- | --- | --- | --- |
| 128 | 4.7 | 3.4 |  |  |  |  | <TWEAK> 301 (rabbit) (antibody, V domains shown, Rabbit parent antibody; purified antibody or hybridoma supernatant was used) VH: QSLEESGGGLVKPGASLTLTCTASGFTFNANYWICWVRQAPGKGLEWIACIYGGGNSGAYYASWATGRFTISRTSSTTVTLQMTSLTAADTATYFCARGPISRDLWGPGTLVTVSL VL: DVVMTQTPASVSEPVGGTVTIKCQASQSIYSSLAWYQQKPGQPPKLLIYDAFDLASGVSSRFTGSGSGTQFTLTISDLECADAATYYCQSTDYGNSWDGNPFGGGTEVVVT |  |
| 104 |  | 2.6 | 147 |  |  |  | <TWEAK> 305chi (antibody, human IgG1, kappa, V domains shown, Chimer: rabbit variable domains with human kappa and human IgG1 constant regions) VH: QEQLVESGGGLVQPGGSLTLSCKASGFDFSTYYMSWVRQAPGKGLEWIGTVYVRQGTTYYASWLNGRFTISSDNAQNTVDLKMNSLTAADTATYFCAKGGYNYDDAFVIWGPGTLVTVSF VL: AIEMTQTPFSVSAAVGGTVTINCQASQNIYSNLAWYQQKPGQPPKLLMYTASYLASGVPSRFKGSGSRTEYTLTISGVQCADAATYYCQTAYYNSRPDTVAFGGGTEVVVKR |  |
|  |  |  |  | 0.25 | 0.065 | 0.15 | Bispecific <Tweak-IL-17> #2 antibody (bispecific antibody, human IgG1, kappa, Bivalent CrossMab (CH1-CL exchanged, WO 2009/080253), IgG1 knobs-into-holes) heavy 1: not shown heavy 2: not shown light 1: DIVMTQSPLSLPVTPGEPASISCRSSQSLVHSNGDTYFHWYLQKPGQSPQLLIYKVSNRFSGVPDRFSGSGSGTDFTLKISRVEAEDVGVYYCSQTTHAPFTFGQGTKLEIKRTVAAPSVFIFPPSDEQLKSGTASVVCLLNNFYPREAKVQWKVDNALQSGNSQESVTEQDSKDSTYSLSSTLTLSKADYEKHKVYACEVTHQGLSSPVTKSFNRGEC light 2: DIQMTQSPSSVSASVGDRVTITCQASQNIYSNLAWYQQKPGKAPKLLIYTASYLASGVPSRFSGSGSGTDYTLTISSLQPEDFATYYCQTAYYNSRPDTVAFGGGTKVEIKSSASTKGPSVFPLAPSSKSTSGGTAALGCLVKDYFPEPVTVSWNSGALTSGVHTFPAVLQSSGLYSLSSVVTVPSSSLGTQTYICNVNHKPSNTKVDKKVEPKSC | no binding (tested: IL17 injected starting with 50 nM) |
| 109 | 3.6 | 2.8 |  |  |  |  | <TWEAK> 304 (rabbit) (antibody, V domains shown, Rabbit parent antibody) VH: QSLEESGGDLVKPGASLTLTCKASGFSFSSTYYMCWVRQAPGKGLEWIGCIYVGSSGAPYYASWAKGRFTISKTSSTTVALQMTSLTPADTATYVCTRSVHFGDLWGPGTLVTVSS VL: DVVMTQTPSPVSAAVGGTVTIKCQASQSIGNDLSWYQQKPGQRPKLLIYSVSTLASGVPSRFKGSGSGTEYSLTISDVQCADAATYYCQCIDYGNNYVGNTFGGGTEVVVK |  |
